How the values were obtained:
[1] = target: Pregnancy zone protein in fucosidase-treated serum (human) (UniProt P20742); assay: fucosidase-treated serum on M-LAC column, displacer fraction, LC-MS/MS; smaller rank = more abundant
[2] = target: Pregnancy zone protein in fucosidase-treated serum (human) (UniProt P20742); assay: fucosidase-treated serum on M-LAC column, displacer fraction, extracted ion chromatogram of peptide … (so in the source)

Chain of Pregnancy zone protein in fucosidase-treated serum (human) (P20742 26-1482 limits assumed): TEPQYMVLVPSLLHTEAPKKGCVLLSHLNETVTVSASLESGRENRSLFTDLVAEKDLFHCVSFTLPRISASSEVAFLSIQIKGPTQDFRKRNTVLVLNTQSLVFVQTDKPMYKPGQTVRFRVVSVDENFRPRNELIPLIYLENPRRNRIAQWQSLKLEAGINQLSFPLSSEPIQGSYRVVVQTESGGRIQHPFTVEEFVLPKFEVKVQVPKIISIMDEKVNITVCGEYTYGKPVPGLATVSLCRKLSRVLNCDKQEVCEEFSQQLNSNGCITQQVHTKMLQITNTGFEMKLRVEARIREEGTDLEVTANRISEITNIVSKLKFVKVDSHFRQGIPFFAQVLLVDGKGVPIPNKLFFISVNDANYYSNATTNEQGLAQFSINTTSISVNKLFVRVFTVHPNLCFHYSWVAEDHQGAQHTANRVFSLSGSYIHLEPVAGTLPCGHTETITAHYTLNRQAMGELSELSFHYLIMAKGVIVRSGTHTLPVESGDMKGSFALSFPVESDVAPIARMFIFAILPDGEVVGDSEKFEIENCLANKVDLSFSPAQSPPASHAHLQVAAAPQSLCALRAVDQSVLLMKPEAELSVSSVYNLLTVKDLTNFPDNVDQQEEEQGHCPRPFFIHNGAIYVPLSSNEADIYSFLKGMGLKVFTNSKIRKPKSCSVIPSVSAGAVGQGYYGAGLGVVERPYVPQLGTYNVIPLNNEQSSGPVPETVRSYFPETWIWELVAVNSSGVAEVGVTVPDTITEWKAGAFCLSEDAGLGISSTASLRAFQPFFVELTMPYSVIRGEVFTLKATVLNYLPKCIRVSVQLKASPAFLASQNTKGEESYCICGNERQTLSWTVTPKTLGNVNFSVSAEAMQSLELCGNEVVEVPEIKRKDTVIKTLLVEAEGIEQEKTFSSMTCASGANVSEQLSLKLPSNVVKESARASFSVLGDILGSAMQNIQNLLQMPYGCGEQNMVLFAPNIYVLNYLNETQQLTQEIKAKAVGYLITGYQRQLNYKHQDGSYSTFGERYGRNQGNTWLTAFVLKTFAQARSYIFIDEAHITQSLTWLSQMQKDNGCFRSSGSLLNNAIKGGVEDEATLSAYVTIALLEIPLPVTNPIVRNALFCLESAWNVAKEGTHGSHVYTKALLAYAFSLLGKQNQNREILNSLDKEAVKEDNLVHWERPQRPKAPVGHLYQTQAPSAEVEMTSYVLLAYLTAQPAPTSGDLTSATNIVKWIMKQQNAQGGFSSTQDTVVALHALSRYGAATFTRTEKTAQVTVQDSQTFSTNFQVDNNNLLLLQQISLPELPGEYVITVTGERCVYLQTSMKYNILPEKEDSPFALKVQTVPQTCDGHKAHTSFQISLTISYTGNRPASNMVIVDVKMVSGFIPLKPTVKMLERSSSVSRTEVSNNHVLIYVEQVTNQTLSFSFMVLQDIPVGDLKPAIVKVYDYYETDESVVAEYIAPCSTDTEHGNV

B1: Jacalin lectin, agarose-bound (protein)
chain 1: GKAFDDGAFTGIREINLSYNKETAIGDFQVVYDLNGSPYVGQNHKSFITGFTPVKISLDFPSEYIMEVSGYTGNVSGYVVVRSLTFKTNKKTYGPYGVTSGTPFNLPIENGLIVGFKGSIGYWLDYFSMYLSL
chain 2: NEQSGKSQTVIVGSWGAKVS
modifications: immobilized on agarose
- SEQUEST rank in displacer fraction [1]: 6
- peptide peak area in displacer fraction [2]: 0 counts

From patent publication US20090166224A1
